Experimental data as given in PMC5537682, “DNA-Interacting Characteristics of the Archaeal Rudiviral Protein SIRV2_Gp1”.

Columns and labels:
SIRV2_Gp1 [1] = target: T1, SIRV2_Gp1 (Sulfolobus islandicus rod-shaped virus …, UniProt Q8UYE8 1-83); assay: EMSA; low affinity, >1 uM protein needed; smearing, unbound probe remains; 6-FAM EMSA: 50 mM Tris pH 7.5, 5 mM EDTA, 1 mM DTT, 100 ug/mL BSA, 100 nM probe, 20 min room temperature; 32P EMSA: 20 mM Tris pH 8.0, 0.4 mM EDTA, 1 mM MgCl2; settings: protein: recombinant; tags: C-terminal His-tag (pEXP5-CT/TOPO); label: 5'-6-FAM; single strand
T1 sequence: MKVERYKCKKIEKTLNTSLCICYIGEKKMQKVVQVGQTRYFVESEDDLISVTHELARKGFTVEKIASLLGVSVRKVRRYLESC

SIRV2_Gp1 [2] = target: T1, SIRV2_Gp1; assay: EMSA; >1 uM protein needed; higher affinity than single-stranded probes; 6-FAM EMSA: 50 mM Tris pH 7.5, 5 mM EDTA, 1 mM DTT, 100 ug/mL BSA, 100 nM probe, 20 min room temperature; 32P EMSA: 20 mM Tris pH 8.0, 0.4 mM EDTA, 1 mM MgCl2; settings: protein: recombinant; tags: C-terminal His-tag (pEXP5-CT/TOPO); blunt
SIRV2_Gp1 [3] = target: T1, SIRV2_Gp1; assay: EMSA; >1 uM protein needed; 6-FAM EMSA: 50 mM Tris pH 7.5, 5 mM EDTA, 1 mM DTT, 100 ug/mL BSA, 100 nM probe, 20 min room temperature; 32P EMSA: 20 mM Tris pH 8.0, 0.4 mM EDTA, 1 mM MgCl2; settings: protein: recombinant, tags: C-terminal His-tag (pEXP5-CT/TOPO)

TGAGTTTTTTTCATTTTTTGCGTAAATTTC (ssDNA) [random 30-nt ssDNA (oligo 3)]
binding result (SIRV2_Gp1 [1]): binds

B1: random 30-bp dsDNA (oligos 3-4) (dsDNA)
DNA 1: TGAGTTTTTTTCATTTTTTGCGTAAATTTC
DNA 2: GAAATTTACGCAAAAAATGAAAAAAACTCA
binding result (SIRV2_Gp1 [2]): binds

B2: hairpin DNA (oligo 5) (structured_DNA)
DNA: TGAGTTTTTTTCATTTTTTGCGTAAATTTCGAAATTTACGCAAAAAATGAAAAAAACTCA
binding result (SIRV2_Gp1 [3]; label: 5'-6-FAM, hairpin): binds

B3: Holliday junction DNA (oligos 7-10) (structured_DNA)
DNA 1: GCGTTACAATGGAAACTATTCTTGGCAGTTGCATCCAACG
DNA 2: CGTTGGATGCAACTGCCAAGAATAGTGTCAGTTCCAGACG
DNA 3: CGTCTGGAACTGACACTATTCTTGGCGAATGGTCGTAAGC
DNA 4: GCTTACGACCATTCGCCAAGAATAGTTTCCATTGTAACGC
binding result (SIRV2_Gp1 [3]; four-way junction of 4 strands): binds
